Data on 13 molecules can be found in publication PMC7710722, “A nanobody suite for yeast scaffold nucleoporins provides details of the nuclear pore complex structure” (Nature Communications, 2020).

Holding throughout (details): both partners purified
In one assay the target is T1, Nup85_(1–564) (S. cerevisiae, UniProt P46673 1-564).
T1 construct: Nup85, S. cerevisiae, residues 1-564 (crown and trunk modules); The Nup85 chain of m31, written alone for the pairs that touch in the structure 6X08; also called Nup85_(trunk-crown); Nup85_(crown-trunk); source: E. coli LOBSTR-RIL(DE3), purified together with Seh1
T1 sequence (looked up): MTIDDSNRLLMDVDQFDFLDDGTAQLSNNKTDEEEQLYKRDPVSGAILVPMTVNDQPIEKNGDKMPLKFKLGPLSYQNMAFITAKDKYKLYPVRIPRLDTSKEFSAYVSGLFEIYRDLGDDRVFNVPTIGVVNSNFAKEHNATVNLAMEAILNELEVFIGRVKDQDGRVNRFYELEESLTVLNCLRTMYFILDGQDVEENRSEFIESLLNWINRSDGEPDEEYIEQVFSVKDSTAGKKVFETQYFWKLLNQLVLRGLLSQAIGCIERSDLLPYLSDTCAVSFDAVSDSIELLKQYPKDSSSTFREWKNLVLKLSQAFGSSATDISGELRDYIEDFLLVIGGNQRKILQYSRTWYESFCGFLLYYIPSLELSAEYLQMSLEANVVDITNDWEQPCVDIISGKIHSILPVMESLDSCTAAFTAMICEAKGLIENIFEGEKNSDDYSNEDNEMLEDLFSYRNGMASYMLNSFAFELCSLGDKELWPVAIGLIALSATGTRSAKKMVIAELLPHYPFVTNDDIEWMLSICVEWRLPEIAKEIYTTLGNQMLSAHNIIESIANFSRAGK
In words: crystal structure; nup-nanobody complexes crystallised at 18 °C; solved by molecular replacement.

Assay [1] has as its target T2, Nup120 (analyte of the BLI of Table 1) (Saccharomyces cerevisiae S288c, UniProt P35729).
T2 construct: Nup120, S. cerevisiae; source: E. coli, recombinant
In words: BLI; biotinylated, C-terminally Avi-tagged nanobody immobilised on streptavidin tips, nup as analyte in twofold dilution series; 10 mM Tris/HCl pH 7.5, 150 mM NaCl, 1 mM DTT, 0.1 mM EDTA, 0.05% Tween-20, 0.1% BSA; global 1:1 kinetic fit.

Assay [2] addresses T3, Nup85 (analyte of the BLI of Table 1) (Saccharomyces cerevisiae S288c, UniProt P46673).
T3 construct: Nup85, S. cerevisiae; the analyte may have been a complex with Seh1; source: E. coli, recombinant
Described as above.

Another assay concerns the target T4, Nup84 (S. cerevisiae, UniProt P52891).
T4 construct: Nup84, S. cerevisiae; limits not given; source: E. coli LOBSTR-RIL(DE3), purified (Ni Sepharose, 3C protease, HiTrap SP FF flow-through, Superdex S200)
The description is as above.

The target in assay [3] is T5, Nup133 (analyte of the BLI of Table 1) (Saccharomyces cerevisiae (strain ATCC …, UniProt P36161)).
T5 construct: Nup133, S. cerevisiae; source: E. coli, recombinant
T5 sequence (P36161 whole entry): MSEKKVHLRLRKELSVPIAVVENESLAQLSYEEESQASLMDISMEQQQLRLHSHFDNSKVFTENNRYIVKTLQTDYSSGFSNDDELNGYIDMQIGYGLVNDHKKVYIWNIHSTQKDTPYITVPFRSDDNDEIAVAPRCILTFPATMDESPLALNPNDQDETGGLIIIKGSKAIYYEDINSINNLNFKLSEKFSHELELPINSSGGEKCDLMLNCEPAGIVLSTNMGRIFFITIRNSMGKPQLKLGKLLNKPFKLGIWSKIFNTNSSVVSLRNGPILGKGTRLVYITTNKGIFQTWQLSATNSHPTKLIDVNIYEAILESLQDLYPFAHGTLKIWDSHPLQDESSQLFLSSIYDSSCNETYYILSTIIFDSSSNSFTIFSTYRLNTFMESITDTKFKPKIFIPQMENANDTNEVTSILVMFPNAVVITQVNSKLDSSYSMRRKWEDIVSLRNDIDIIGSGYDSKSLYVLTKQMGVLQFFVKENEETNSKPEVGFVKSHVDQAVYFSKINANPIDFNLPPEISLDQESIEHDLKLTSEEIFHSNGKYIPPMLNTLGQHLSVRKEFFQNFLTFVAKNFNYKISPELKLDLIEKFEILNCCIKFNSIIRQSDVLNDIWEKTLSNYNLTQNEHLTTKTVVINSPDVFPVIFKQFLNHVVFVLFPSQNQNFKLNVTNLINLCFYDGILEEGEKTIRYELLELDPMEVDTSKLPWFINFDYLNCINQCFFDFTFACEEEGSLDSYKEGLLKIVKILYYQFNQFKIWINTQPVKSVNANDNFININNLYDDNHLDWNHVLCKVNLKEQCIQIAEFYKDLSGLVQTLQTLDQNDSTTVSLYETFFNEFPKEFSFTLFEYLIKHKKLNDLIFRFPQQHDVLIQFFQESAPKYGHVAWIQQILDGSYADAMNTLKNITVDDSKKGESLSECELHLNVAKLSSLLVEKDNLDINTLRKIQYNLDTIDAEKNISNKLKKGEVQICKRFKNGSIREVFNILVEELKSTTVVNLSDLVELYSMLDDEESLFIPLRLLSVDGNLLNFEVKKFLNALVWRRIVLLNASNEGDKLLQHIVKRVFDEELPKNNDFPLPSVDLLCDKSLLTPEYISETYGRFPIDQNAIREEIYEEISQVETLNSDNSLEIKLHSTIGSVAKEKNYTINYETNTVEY
The description is as above.

Another assay has as its target T6, Nic96_(186–839) (Saccharomyces cerevisiae S288c, UniProt P34077).
T6 construct: The only Nic96 construct in the methods; source: E. coli LOBSTR-RIL(DE3), purified (Ni Sepharose, 3C protease, Superdex S200)
The assay is described as above.

For assay [4], the target named is T7, Sec13 (analyte of the BLI of Table 1) (Saccharomyces cerevisiae S288c, UniProt Q04491).
T7 construct: Sec13, S. cerevisiae; The analyte may have been Sec13 fused to the Nup145C insertion blade; source: E. coli, recombinant
T7 sequence (Q04491 whole entry, the tested form may be a part): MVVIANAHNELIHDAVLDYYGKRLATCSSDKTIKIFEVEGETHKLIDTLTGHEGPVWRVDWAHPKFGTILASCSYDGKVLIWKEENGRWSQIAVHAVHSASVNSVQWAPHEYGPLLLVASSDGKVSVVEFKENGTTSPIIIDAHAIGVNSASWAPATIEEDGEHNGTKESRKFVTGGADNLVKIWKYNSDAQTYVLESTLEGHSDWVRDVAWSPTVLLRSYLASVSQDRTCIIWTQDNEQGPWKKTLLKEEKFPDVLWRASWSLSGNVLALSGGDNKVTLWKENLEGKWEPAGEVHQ
The assay is described as above.

Assay [5] addresses T8, fusion construct of Nup145C-Sec13 (Saccharomyces cerevisiae S288c, UniProt P49687;Q04491).
T8 construct: Nup145C, the C-terminal product of Nup145, S. cerevisiae; named among the 'full-length nups'; Sec13, S. cerevisiae; source: E. coli
The assay is described as follows: SEC; nup and nanobody incubated 30 min on ice, then Superdex S75 or S200 10/300 in 150 mM NaCl, 10 mM Tris/HCl pH 7.5, 1 mM DTT, 0.1 mM EDTA.

For assay [6], the target named is T9, Nup120-Nup85-Seh1-Nup145C-Sec13 (Saccharomyces cerevisiae S288c, UniProt P35729;P46673;P53011;P49687;Q04491).
T9 construct: Nup120, S. cerevisiae; Nup85, S. cerevisiae; Seh1, S. cerevisiae; Nup145C, the C-terminal product of Nup145, S. cerevisiae, residues 34-712; Sec13, S. cerevisiae; Nup145C and Sec13 may stand on one chain as in the fusion construct; also called assembled Y complex hub; source: E. coli, purified; assembled from Nup85-Seh1 and Nup120-Nup145C_(34–712)-Sec13 on Superdex S200; copies: + + + +
Described as above.

T2 sequence (P35729 whole entry): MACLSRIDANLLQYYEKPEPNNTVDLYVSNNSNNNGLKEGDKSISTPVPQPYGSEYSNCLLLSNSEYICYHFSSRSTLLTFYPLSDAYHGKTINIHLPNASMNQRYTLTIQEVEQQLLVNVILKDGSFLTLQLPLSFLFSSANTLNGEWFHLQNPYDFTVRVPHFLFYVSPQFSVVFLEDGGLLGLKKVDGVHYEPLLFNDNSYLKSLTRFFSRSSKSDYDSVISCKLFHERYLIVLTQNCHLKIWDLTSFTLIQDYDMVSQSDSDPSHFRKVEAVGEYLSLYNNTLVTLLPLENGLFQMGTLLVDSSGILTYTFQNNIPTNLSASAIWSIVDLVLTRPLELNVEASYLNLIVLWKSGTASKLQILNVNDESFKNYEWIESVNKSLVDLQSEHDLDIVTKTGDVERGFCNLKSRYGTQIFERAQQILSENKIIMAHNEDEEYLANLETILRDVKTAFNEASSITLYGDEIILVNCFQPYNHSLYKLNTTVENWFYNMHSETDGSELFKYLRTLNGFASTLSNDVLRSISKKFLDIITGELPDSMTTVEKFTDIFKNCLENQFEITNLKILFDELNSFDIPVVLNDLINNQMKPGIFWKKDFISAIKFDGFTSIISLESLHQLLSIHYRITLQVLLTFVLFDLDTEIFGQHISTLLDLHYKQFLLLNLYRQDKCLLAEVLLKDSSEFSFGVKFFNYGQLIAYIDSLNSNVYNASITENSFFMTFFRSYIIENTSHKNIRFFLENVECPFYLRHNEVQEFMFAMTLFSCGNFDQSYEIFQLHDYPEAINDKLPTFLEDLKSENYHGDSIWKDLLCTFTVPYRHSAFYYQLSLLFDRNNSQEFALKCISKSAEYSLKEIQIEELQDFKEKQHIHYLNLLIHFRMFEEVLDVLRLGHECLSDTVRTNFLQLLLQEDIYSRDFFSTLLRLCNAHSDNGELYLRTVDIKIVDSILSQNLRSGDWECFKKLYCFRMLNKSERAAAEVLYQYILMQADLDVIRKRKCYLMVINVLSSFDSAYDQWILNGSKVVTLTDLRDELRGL
T4 sequence (P52891 whole entry): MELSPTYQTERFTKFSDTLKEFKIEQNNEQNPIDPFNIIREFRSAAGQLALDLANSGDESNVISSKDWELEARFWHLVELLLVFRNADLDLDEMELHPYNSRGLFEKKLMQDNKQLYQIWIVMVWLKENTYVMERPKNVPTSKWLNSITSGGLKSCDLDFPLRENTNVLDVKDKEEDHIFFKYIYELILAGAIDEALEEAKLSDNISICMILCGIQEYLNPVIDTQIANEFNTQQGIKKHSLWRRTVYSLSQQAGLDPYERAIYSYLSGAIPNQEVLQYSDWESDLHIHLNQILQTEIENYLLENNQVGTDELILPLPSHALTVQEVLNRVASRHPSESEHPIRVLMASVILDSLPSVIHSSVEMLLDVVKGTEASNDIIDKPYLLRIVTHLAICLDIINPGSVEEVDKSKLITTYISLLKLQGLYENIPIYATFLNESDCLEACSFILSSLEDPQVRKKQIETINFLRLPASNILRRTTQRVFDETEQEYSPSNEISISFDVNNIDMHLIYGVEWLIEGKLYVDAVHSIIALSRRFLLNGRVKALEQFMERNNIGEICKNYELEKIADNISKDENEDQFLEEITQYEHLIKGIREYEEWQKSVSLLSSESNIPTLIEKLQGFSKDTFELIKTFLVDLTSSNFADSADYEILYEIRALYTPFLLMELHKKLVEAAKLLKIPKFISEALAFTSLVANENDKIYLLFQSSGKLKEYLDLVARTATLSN

B1: Seh1 (natural protein, S. cerevisiae)
chain: MQPFDSGHDDLVHDVVYDFYGRHVATCSSDQHIKVFKLDKDTSNWELSDSWRAHDSSIVAIDWASPEYGRIIASASYDKTVKLWEEDPDQEECSGRRWNKLCTLNDSKGSLYSVKFAPAHLGLKLACLGNDGILRLYDALEPSDLRSWTLTSEMKVLSIPPANHLQSDFCLSWCPSRFSPEKLAVSALEQAIIYQRGKDGKLHVAAKLPGHKSLIRSISWAPSIGRWYQLIATGCKDGRIRIFKITEKLSPLASEESLTNSNMFDNSADVDMDAQGRSDSNTEEKAELQSNLQVELLSEHDDHNGEVWSVSWNLTGTILSSAGDDGKVRLWKATYSNEFKCMSVITAQQ
notes: Seh1, S. cerevisiae; Used alone in SEC with VHH-SAN1; also written alone for its contact with Nup85(1-564) in the structure 6X08; also called Seh1 alone; source: E. coli
In the case of B1, the binding result in the assay with Nup85_(1–564) is given as “binds”.

B2: VHH-SAN10 with biotinylated C-terminal Avi-tag (VHH)
VHH: QVQLVETGGGLVQAGGSLRLSCVVSGRTFSSYAMGWFRQAPGKEREFVSGINWSGGSAYYGDSVKGRFTISRDNAKNTVYLQMNSLKPEDTAVYYCVADRAWRGTTWRADSSYDYWGQGTQVTVSS
notes: deposited with PDB 6X06, but no density for VHH-SAN10 in the map; Separate Avi-tagged construct used for BLI; source: E. coli LOBSTR-RIL(DE3), biotin added to the culture, purified (Ni Sepharose, SEN-p protease, Superdex S75); not shown: 14xHis, N-terminal, cleaved; bdSUMO, N-terminal, cleaved; Avi-tag, C-terminal, kept
The Kd is the constant that tells how readily two partners part at equilibrium. Low readings indicate tighter binding, high ones weaker binding. By koff is commonly meant the first-order rate constant of dissociation. What is called kon is a measure of how fast the partners come together. Consider B2, for which, in assay [1], the Kd came out at 0.38 nM, the off-rate constant (koff) worked out at 0.00017 s⁻¹ and the association rate constant (kon) turned out to be 450000 M⁻¹ s⁻¹.

B3: VHH-SAN3 with biotinylated C-terminal Avi-tag (VHH)
VHH: QVQLVESGGGLVQAGGSLRLSCFASGGTFSRYDMGWFRQAPGKEREFVARITRGGRVADYAAFVEGRFTISRDNAKNTVYLQMNSLKPEDTGIYFCAGKDAGVFDFYLWGQGTQVTVSS
notes: Separate Avi-tagged construct used for BLI; source: E. coli LOBSTR-RIL(DE3), biotin added to the culture, purified (Ni Sepharose, SEN-p protease, Superdex S75); not shown: 14xHis, N-terminal, cleaved; bdSUMO, N-terminal, cleaved; Avi-tag, C-terminal, kept
As to B3, in [2], binding was characterised by a dissociation constant (Kd) of 0.014 nM, the off-rate (koff) amounted to 8.1e-06 s⁻¹ and the on-rate (kon) was determined as 580000 M⁻¹ s⁻¹.

B4: VHH-SAN9 with biotinylated C-terminal Avi-tag (VHH)
VHH: QVQLVESGGGSVQAGGSLRLSCAVSGGTLSTLAMGWFRQAPGQEREFVARIGWTNGDTGYADSVKGRFTISRDNVKNTVYLQMNNLKPEDTALYYCATRRPYGSTLYPPNTESAHDNWGQGTQVTVSS
notes: as for B3
For the molecule B4, in the assay with Nup84, the Kd came out at 0.17 nM, the koff came out at 7.7e-05 s⁻¹ and the kon amounted to 440000 M⁻¹ s⁻¹.

B5: VHH-SAN2 with biotinylated C-terminal Avi-tag (VHH)
VHH: QVQLVETGGGLVQPGGSLRLSCAASGFTLDDYAIGWFRQAPGKEREGVSCISRSGGSTTYTDSVKGRFTISRDNAENTVYLQMNSLKPEDTAVYYCAAARTRGTCWLNRIGMDYWGKGTQVTVSS
notes: also in PDB 6X08; Separate Avi-tagged construct used for BLI; source: E. coli LOBSTR-RIL(DE3), biotin added to the culture, purified (Ni Sepharose, SEN-p protease, Superdex S75); not shown: 14xHis, N-terminal, cleaved; bdSUMO, N-terminal, cleaved; Avi-tag, C-terminal, kept
For the molecule B5, in assay [2], the dissociation constant (Kd) was 0.08 nM, the off-rate (koff) was found to be 8.1e-05 s⁻¹ and the on-rate constant (kon) came out at 1e+06 M⁻¹ s⁻¹.

B6: VHH-SAN1 with biotinylated C-terminal Avi-tag (VHH)
VHH: QVQLVETGGGLVPPGGSLKLSCAVSGDILRVQTMGWYRQAPGKQRELVAAFTGGGRTNYADSMKGRFTISRDNAKNTVFLQMNSLKPEDTAVYYCRADIAAVRPWPLQEYWGQGTQVTVSS
notes: as for B3
In assay [2], B6 returned an equilibrium dissociation constant (Kd) of 0.58 nM, an off-rate constant (koff) of 0.0014 s⁻¹ and an on-rate (kon) of 2.3e+06 M⁻¹ s⁻¹.

B7: VHH-SAN5 with biotinylated C-terminal Avi-tag (VHH)
VHH: QVQLVESGGGLVQAGGSLRLSCAASGSIGSLDAMAWYRRAPGKQRERVASISRYGTYYVDSVKGRFTISRDNAKNTVYLQMNSLKPEDTGVYYCKGVMEVGGVIDEYWGQGTQVTVSS
notes: as for B3
Regarding B7, in assay [3], the Kd was determined as 10 nM, the koff came out at 0.0028 s⁻¹ and the on-rate (kon) is 280000 M⁻¹ s⁻¹.

B8: VHH-SAN8 with biotinylated C-terminal Avi-tag (VHH)
VHH: QLQLVETGGGLVQAGGSLRLSCVASGRTFTSYAMGWFRQAPGKEREFVAAISRLASGTDYADSVKGRFTISRNNDKNTVYLQMNNLIPEDTAVYYCAALQALRFSLPIAMATMKNGRADSWGQGTQVTVSS
notes: as for B3
In the assay with Nup84, B8 displayed a Kd of 0.063 nM, a koff of 2.2e-05 s⁻¹ and an association rate constant (kon) of 350000 M⁻¹ s⁻¹.

B9: VHH-SAN12 with biotinylated C-terminal Avi-tag (VHH)
VHH: QVQLVETGGGLVQAGGSLRLSCATSGFNFRLRTMGWYRQAPGKERELVASITSGGSTDYADSVKGRFTISRDNAKNTISLEMNSLKPDDTAVYYCNIWAPTTAAITNWGQGTQVTVSS
notes: also in PDB 6X07; Separate Avi-tagged construct used for BLI; source: E. coli LOBSTR-RIL(DE3), biotin added to the culture, purified (Ni Sepharose, SEN-p protease, Superdex S75); not shown: 14xHis, N-terminal, cleaved; bdSUMO, N-terminal, cleaved; Avi-tag, C-terminal, kept
In the assay with Nic96_(186–839), B9 registered a Kd of 1.3 nM, a koff of 0.0024 s⁻¹ and an on-rate constant (kon) of 1.8e+06 M⁻¹ s⁻¹.

B10: VHH-SAN4 with biotinylated C-terminal Avi-tag (VHH)
VHH: QLQLVESGGGSVQAGGSLTLSCTASESISKRIHGIGWFRQRRGEQREEIAYITTGGRPNLGDSVKDRFTISRDKSNGTVYLQMNSLKPEDTAVYYCHGRGRWWGTEGRLDYWGQGTQVTVSS
notes: as for B3
In [3], B10 registered a dissociation constant (Kd) of 230 nM, a koff of 0.22 s⁻¹ and a kon of 950000 M⁻¹ s⁻¹.

B11: VHH-SAN11 with biotinylated C-terminal Avi-tag (VHH)
VHH: QVQLVETGGGLVRAGGSLRLSCVDSGRTFRVYTMGWFRQAPGKEREFVAAIRWSGDRTYYGDPVQGRFTISRDKGKNTVYLQMNSLKPEDTAVYYCAAPAGGGVVYDDHKAYAYWGQGTQVTVS
notes: also in PDB 6X06; Separate Avi-tagged construct used for BLI; source: E. coli LOBSTR-RIL(DE3), biotin added to the culture, purified (Ni Sepharose, SEN-p protease, Superdex S75); not shown: 14xHis, N-terminal, cleaved; bdSUMO, N-terminal, cleaved; Avi-tag, C-terminal, kept
Regarding B11, in [1], binding was put at a Kd of 0.79 nM, the koff worked out at 0.00078 s⁻¹ and the kon is 980000 M⁻¹ s⁻¹.

B12: VHH-SAN7 with biotinylated C-terminal Avi-tag (VHH)
VHH: QVQLVETGGGLVQPGGSLRLSCVASGSIFGINAMGWYRQAPGNQRELVASIRSDFGTTKYADSVKGRFTISRGNARTTVYLQMNSLKPEDTAVYYCRIWSADGNYWGQGTQVTVSS
notes: as for B3
In assay [4], B12 gave an equilibrium dissociation constant (Kd) of 0.51 nM, an off-rate constant (koff) of 0.00065 s⁻¹ and a kon of 1.3e+06 M⁻¹ s⁻¹.

B13: VHH-SAN7 (VHH)
VHH: QVQLVETGGGLVQPGGSLRLSCVASGSIFGINAMGWYRQAPGNQRELVASIRSDFGTTKYADSVKGRFTISRGNARTTVYLQMNSLKPEDTAVYYCRIWSADGNYWGQGTQVTVSS
notes: source: E. coli LOBSTR-RIL(DE3), purified (Ni Sepharose, SEN-p protease, Superdex S75); not shown: 14xHis, N-terminal, cleaved; bdSUMO, N-terminal, cleaved
As to B13, the binding result in [5] and in assay [6] was “binds” in each case.
